For series [1], the target named is His6-tagged GlnR of Paenibacillus polymyxa WLY78 (Paenibacillus polymyxa WLY78). Nature of the series: SEC; Superdex 200 10/300, 50 mM Tris-HCl pH 7.4, 300 mM NaCl; His6-GlnR at 2 mg/ml; dimer to monomers, broad peak with two maxima. On the technique in general: SEC sorts molecules by how far they enter the pores of the column.
Series [2] has as its target T1, GlnR (Paenibacillus polymyxa WLY78, UniProt A0A074LG55 1-137).
T1 sequence: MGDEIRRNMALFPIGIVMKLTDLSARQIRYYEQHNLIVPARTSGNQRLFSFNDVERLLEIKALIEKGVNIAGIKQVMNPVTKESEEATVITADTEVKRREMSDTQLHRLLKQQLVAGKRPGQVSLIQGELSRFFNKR
Kind of series: EMSA; GlnR alone; EMSA: 20 mM HEPES pH 7.6, 1 mM EDTA, 10 mM (NH4)2SO4, 1 mM DTT, 0.2% Tween 20, 30 mM KCl, 1 ug poly[d(A-T)], 0.3 nM probe, 25 C; SPR: 10 mM HEPES pH 7.4, 300 mM NaCl, 3 mM MgCl2, 0.2 mM EDTA, 0.005% Tween-20, 25 C. The conditions noted are these: protein: recombinant; tags: N-terminal His6 (pET-28b); chain copies: 2; label: DIG 3' end; blunt. (In general: Mobility shift assays separate free from complexed probe on a gel.)

Series [3] addresses T1, GlnR. Kind of series: SPR; GlnR alone; fast dissociation; EMSA: 20 mM HEPES pH 7.6, 1 mM EDTA, 10 mM (NH4)2SO4, 1 mM DTT, 0.2% Tween 20, 30 mM KCl, 1 ug poly[d(A-T)], 0.3 nM probe, 25 C; SPR: 10 mM HEPES pH 7.4, 300 mM NaCl, 3 mM MgCl2, 0.2 mM EDTA, 0.005% Tween-20, 25 C. Particulars: protein: recombinant; tags: N-terminal His6 (pET-28b); chain copies: 2; label: 5' biotin on capture linker S7; 39 bp duplex; 3' overhang 20 nt of BS1R paired to the capture linker. A general note: SPR reads the build-up and loss of mass on a sensor chip optically.

For series [4], the target named is T1, GlnR. Nature of the series: SPR; GlnR alone; EMSA: 20 mM HEPES pH 7.6, 1 mM EDTA, 10 mM (NH4)2SO4, 1 mM DTT, 0.2% Tween 20, 30 mM KCl, 1 ug poly[d(A-T)], 0.3 nM probe, 25 C; SPR: 10 mM HEPES pH 7.4, 300 mM NaCl, 3 mM MgCl2, 0.2 mM EDTA, 0.005% Tween-20, 25 C. The conditions noted are these: protein: recombinant, tags: N-terminal His6 (pET-28b), chain copies: 2, label: 5' biotin on capture linker S7, 39 bp duplex.

Series [5] addresses T1, GlnR. Kind of series: SPR; GlnR alone; slow dissociation; EMSA: 20 mM HEPES pH 7.6, 1 mM EDTA, 10 mM (NH4)2SO4, 1 mM DTT, 0.2% Tween 20, 30 mM KCl, 1 ug poly[d(A-T)], 0.3 nM probe, 25 C; SPR: 10 mM HEPES pH 7.4, 300 mM NaCl, 3 mM MgCl2, 0.2 mM EDTA, 0.005% Tween-20, 25 C. The conditions noted are these: protein: recombinant; tags: N-terminal His6 (pET-28b); chain copies: 2; label: 5' biotin on capture linker S7; 39 bp duplex; 3' overhang 20 nt of BS2R paired to the capture linker.

In general, stoichiometry N refers to a count of units in the complex or per binding partner. “His6-tagged GlnR of Paenibacillus polymyxa WLY78 (natural protein)” yielded a stoichiometry N in series [1] of 2.

B1: EMSA probe mutated site II (ATAACG to ATCGAT) (dsDNA)
DNA 1: AGACAAAAACAGAGATTTATGTAAGGGAATAATCGATAGAGAGGAGGGAATGA
DNA 2: TCATTCCCTCCTCTCTATCGATTATTCCCTTACATAAATCTCTGTTTTTGTCT
For the molecule B1, the binding result in the series with GlnR [2] is listed as “no binding”.

B2: EMSA probe mutated site I (TGACGT to GGTACC) (dsDNA)
DNA 1: ACCGCGCACATGTAAAGTGTACGATATATTACTGGTACCAAAATTTGACACATATGTGA
DNA 2: TCACATATGTGTCAAATTTTGGTACCAGTAATATATCGTACACTTTACATGTGCGCGGT
As to B2, the binding result in the series with GlnR [2] was “no binding”.

B3: SPR oligo site I (BS1F/BS1R on capture linker) (dsDNA)
DNA 1: GTAAAGTGTACGATATATTACTTGACGTAAAATTTGACA
DNA 2: TGTCAAATTTTACGTCAAGTAATATATCGTACACTTTACCCTACCCTACGTCCTCCTGC
DNA 3: GCAGGAGGACGTAGGGTAGG
A word on the Kd: it is the concentration at which binding is half-saturated. Consider B3, for which the Kd in the series with GlnR [3] is 9.16e-07 M (unit not printed in text). Also, in the series with GlnR [4] (3' overhang 20 nt of BS1R paired to the capture linker), the Ka was 1.09e+06 M-1 (unit not printed in text).

B4: SPR oligo site II (BS2F/BS2R on capture linker) (dsDNA)
DNA 1: AACAGAGATTTATGTAAGGGAATATAACGTAGAGAGGAG
DNA 2: CTCCTCTCTACGTTATATTCCCTTACATAAATCTCTGTTCCTACCCTACGTCCTCCTGC
DNA 3: GCAGGAGGACGTAGGGTAGG
As to B4, the Kd in the series with GlnR [5] was 5.37e-08 M (unit not printed in text). In addition, the Ka with GlnR [4] (3' overhang 20 nt of BS2R paired to the capture linker) was 1.86e+07 M-1 (unit not printed in text).

Source of the values: paper PMC6191146, “Positive and negative regulation of transferred nif genes mediated by indigenous GlnR in Gram-positive Paenibacillus polymyxa”.
